# PMC10920689
# How the values were obtained:
# [1] = target: truncated soluble biotinylated mouse FcRn lacking the transmembrane domain (mouse | not stated) (UniProt Q61559)
# [2] = target: human FcRn coupled to the FcRn retention column (UniProt P55899); assay: analytical FcRn affinity chromatography; 100 μg NIP IgG1 variant injected over a human FcRn retention column at pH 6.0, eluted by a pH gradient 6.0 to 8.8 over 110 min (20 mM MES, 140 mM NaCl pH 6.0; 20 mM Tris/HCl, 140 NaCl pH 8.8)
# [3] = target: truncated soluble human FcRn of the FcRn binding ELISAs (hFcRn-GST or biotinylated human FcRn; the form is not told for the panel) (UniProt P55899)
# [4] = target: truncated soluble human FcRn of the FcRn binding ELISAs (hFcRn-GST or biotinylated human FcRn; the form is not told for the panel) (UniProt P55899); remark: listed apart in the source
# [5] = target: anti-NIP IgG3 WT (human); assay: SPR; IgG variants amine-coupled to CM5 chips (300 RU), serial dilutions of monomeric hFcRn-His injected; phosphate buffer pH 6.0, 25 °C, 50 µl/min; 1:1 Langmuir model
# [6] = target: anti-NIP IgG1 WT (human); assay: as above
# [7] = target: anti-NIP IgG1 LS (human); assay: as above
# [8] = target: anti-NIP IgG1 DHS (human); assay: as above
# [9] = target: anti-NIP IgG4 WT (human); assay: as above
# [10] = target: anti-NIP IgG1 YTE/KF (human); assay: as above
# [11] = target: anti-NIP IgG1 Q311R/M428E/N434W (REW) (human); assay: as above
# [12] = target: anti-NIP IgG4 REW (human); assay: as above
# [13] = target: anti-NIP IgG1 KF (human); assay: as above
# [14] = target: anti-NIP IgG1 YTE (human); assay: as above
# [15] = target: anti-NIP IgG2 WT (human); assay: as above
# [16] = target: anti-NIP IgG2 REW (human); assay: as above
# [17] = target: recombinant etanercept WT; assay: as above
# [18] = target: anti-NIP IgG3 R435H/REW (human); assay: as above
# [19] = target: anti-NIP human IgG1 Q311R/M428E/N434W (REW) (human); assay: SPR; Biacore 3000; NIP IgG1 variants amine-coupled (300 RU) to CM5 chips; serial dilutions of monomeric hFcRn-His injected at pH 6.0 (phosphate), 50 μl/min, 25 °C; Langmuir 1:1 model
# Sequence of UniProt Q61559 (Q61559 22-297, chain 1 of 2): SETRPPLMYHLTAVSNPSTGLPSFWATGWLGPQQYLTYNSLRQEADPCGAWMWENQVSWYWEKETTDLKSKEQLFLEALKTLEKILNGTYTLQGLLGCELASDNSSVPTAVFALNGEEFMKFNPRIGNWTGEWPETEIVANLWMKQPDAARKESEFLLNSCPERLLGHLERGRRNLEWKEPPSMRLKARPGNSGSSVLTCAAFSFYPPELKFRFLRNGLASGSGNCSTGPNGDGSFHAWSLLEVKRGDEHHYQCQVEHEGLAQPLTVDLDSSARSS
# Sequence of UniProt Q61559 (P01887 21-119, chain 2 of 2, further chain): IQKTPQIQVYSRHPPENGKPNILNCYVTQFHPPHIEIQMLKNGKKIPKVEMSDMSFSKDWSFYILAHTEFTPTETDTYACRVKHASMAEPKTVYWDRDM
substance,measurement,setting,value
anti-NIP human IgG1 Q311R/M428E/N434W (REW) (antibody),"plasma half-life in conventional mice, against WT",[1],2 fold
same,pH of elution from the FcRn column,[2],7.58 pH
same,plasma half-life after i.v. injection (5 mg/kg) in human FcRn transgenic mice (Tg32) preloaded with IVIg,[3],341 h
anti-NIP human IgG1 wild type (antibody),pH of elution from the FcRn column,[2],6.95 pH
same,plasma half-life after i.v. injection (5 mg/kg) in human FcRn transgenic mice (Tg32) preloaded with IVIg,[3],187 h
anti-NIP human IgG2 Q311R/M428E/N434W (REW) (antibody),plasma half-life in Tg32 mice preloaded with IVIg,[4],276 h
anti-NIP human IgG2 wild type (antibody),plasma half-life in Tg32 mice preloaded with IVIg,[4],202 h
truncated soluble His6x tagged human FcRn lacking the transmembrane domain (hFcRn-His) (from UniProt P55899 24-297; P61769 21-119) (receptor),Kd,[5],525 nM
same,koff,[5],0.177 s⁻¹
same,kon,[5],337000 M⁻¹ s⁻¹
same,Kd,[6],171 nM
same,koff,[6],0.0825 s⁻¹
same,kon,[6],483000 M⁻¹ s⁻¹
same,Kd,[7],13.7 nM
same,koff,[7],0.0058 s⁻¹
same,kon,[7],422000 M⁻¹ s⁻¹
same,Kd,[8],40.3 nM
same,koff,[8],0.0304 s⁻¹
same,kon,[8],756000 M⁻¹ s⁻¹
same,Kd,[9],1280 nM
same,koff,[9],0.123 s⁻¹
same,kon,[9],95800 M⁻¹ s⁻¹
same,Kd,[10],3.44 nM
same,koff,[10],0.003 s⁻¹
same,kon,[10],871000 M⁻¹ s⁻¹
same,Kd,[11],8.39 nM
same,koff,[11],0.0055 s⁻¹
same,kon,[11],653000 M⁻¹ s⁻¹
same,Kd,[12],13.1 nM
same,koff,[12],0.008 s⁻¹
same,kon,[12],606000 M⁻¹ s⁻¹
same,Kd,[13],15.9 nM
same,koff,[13],0.0122 s⁻¹
same,kon,[13],770000 M⁻¹ s⁻¹
same,Kd,[14],28.2 nM
same,koff,[14],0.0168 s⁻¹
same,kon,[14],594000 M⁻¹ s⁻¹
same,Kd,[15],388 nM
same,koff,[15],0.0536 s⁻¹
same,kon,[15],138000 M⁻¹ s⁻¹
same,Kd,[16],13.3 nM
same,koff,[16],0.0075 s⁻¹
same,kon,[16],570000 M⁻¹ s⁻¹
same,Kd,[17],346 nM
same,koff,[17],0.12 s⁻¹
same,kon,[17],348000 M⁻¹ s⁻¹
same,Kd,[18],10.3 nM
same,koff,[18],0.007 s⁻¹
same,kon,[18],674000 M⁻¹ s⁻¹
"truncated soluble His6x tagged human FcRn lacking the transmembrane domain (hFcRn-His), monomeric fraction (from UniProt P55899 24-297; P61769 21-119) (receptor)",fold lower KD than WT,[19],20 fold
